Measured values from patent EP4671282A1.
Like-named read-outs stand apart in the source and are kept apart here.

How the values were obtained:
[1] = biological target: human BAFF (ACROBiosystems, BAF-H52D4) (human) (UniProt Q9Y275); experiment: ELISA, test sample coated, His-tagged BAFF in solution
[2] = biological target: human IL-36R full-length protein stably expressed on CHO-K1 cells (human) (UniProt Q9HB29); experiment: FACS, CHO-K1 cells overexpressing human IL-36R
[3] = biological target: human IL-36R full-length protein stably expressed on CHO-K1 cells (human) (UniProt Q9HB29); experiment: FACS, CHO-K1 cells overexpressing human IL-36R; remark: listed apart in the source

human IL-36R full-length protein stably expressed on CHO-K1 cells (human), sequence (Q9HB29 20-575 limits assumed): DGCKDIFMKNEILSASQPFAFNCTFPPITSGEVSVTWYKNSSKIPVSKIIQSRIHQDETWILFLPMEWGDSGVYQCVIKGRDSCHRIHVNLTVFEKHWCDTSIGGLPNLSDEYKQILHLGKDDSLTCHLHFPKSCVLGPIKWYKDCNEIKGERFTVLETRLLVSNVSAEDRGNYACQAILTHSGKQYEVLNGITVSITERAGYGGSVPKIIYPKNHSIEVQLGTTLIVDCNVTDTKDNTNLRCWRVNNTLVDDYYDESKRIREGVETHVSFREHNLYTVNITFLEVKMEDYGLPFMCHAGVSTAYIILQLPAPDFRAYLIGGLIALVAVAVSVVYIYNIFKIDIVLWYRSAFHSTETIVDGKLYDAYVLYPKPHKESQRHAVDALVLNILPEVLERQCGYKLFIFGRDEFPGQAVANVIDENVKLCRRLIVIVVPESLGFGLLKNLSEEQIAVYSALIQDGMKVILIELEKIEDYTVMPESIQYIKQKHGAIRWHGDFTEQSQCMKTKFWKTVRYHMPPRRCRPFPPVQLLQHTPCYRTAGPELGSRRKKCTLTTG
human BAFF (ACROBiosystems, BAF-H52D4) (human), sequence (Q9Y275 134-285 limits assumed): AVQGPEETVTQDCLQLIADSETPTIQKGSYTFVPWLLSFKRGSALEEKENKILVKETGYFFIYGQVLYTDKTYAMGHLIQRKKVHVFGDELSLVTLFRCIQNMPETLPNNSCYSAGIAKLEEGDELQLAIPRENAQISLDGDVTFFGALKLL

Substance	EC50 [1] [nM]	Maximum MFI [2] [MFI]	Maximum MFI [3] [MFI]
RCT-18, telitacicept (RC18, RemeGen) (Fc fusion)	21.5		
hIgG1 (antibody)		47	77
hIgG4 (antibody)			76
